In this assay the target is T1, MUC1 on WISH cells (human, UniProt P15941 24-1255).
T1 construct: whole, on cells; WISH cells also carry low levels of EGFR; also called MUC1-expressing cells (WISH)
Nature of the assay: cell binding on WISH cells.

B1: 1993-H02 with an HT186-D11 light chain (anti-MUC1 antibody H02) (antibody, V domains shown)
VH: QMQLVQSEAELKKPGASVKVSCKASGYSFTSHFMHWVRQAPGQGLEWMGWIDPVTGGTKYAQNFQGWVTMTRDTSIRTAYLELSRLRSDDTAMYYCAREARADRGQFDKWGQGTLVTVAS
VL: QSVLTQPPSVSVAPGKTARITCGGNNIGSKSVHWYQQKPGQAPALVIYYGSNRPSGIPERFSGSNSGNTATLTISRVEAGDEADYYCQVWDSSSDWVFGGGTKLTVL
notes: One molecule is used here for both experiments
The molecule B1 displayed a Kd of 23.9 nM.

Source of the values: patent US20230310629A1 (Merck KGaA, published 2023).
